Results published in article PMC12582567, “Short heat shock factor A2 regulates heat resistance and growth balance in Arabidopsis”.

Assays:
[1] = biological target: T1, His6-HsfA2 (Arabidopsis thaliana Col-0, UniProt O80982 1-345); test: streptavidin-agarose pull-down; 0 hr prebinding control; EMSA: LightShift kit 1x binding buffer, 50 ng poly(dI-dC), 2.5% glycerol, 0.05% NP-40, 5 mM MgCl2, 100 ng protein, 1.5 ng probe, 30 min, room temperature; pull-down: 50 mM Tris-HCl pH 7.5, 100 mM NaCl, 0.1% Triton X-100, poly(dI-dC), 25 C; settings: protein: recombinant; tags: His6 (pET-28a); chain copies: 3; label: 5' biotin; blunt
[2] = biological target: His6-DBD (Arabidopsis thaliana Col-0, UniProt O80982 42-135); test: EMSA; EMSA: LightShift kit 1x binding buffer, 50 ng poly(dI-dC), 2.5% glycerol, 0.05% NP-40, 5 mM MgCl2, 100 ng protein, 1.5 ng probe, 30 min, room temperature; pull-down: 50 mM Tris-HCl pH 7.5, 100 mM NaCl, 0.1% Triton X-100, poly(dI-dC), 25 C; settings: protein: recombinant; tags: His6 (pET-28a); label: 5' biotin; blunt
[3] = biological target: T1, His6-HsfA2; test: as above; settings: protein: recombinant; tags: His6 (pET-28a); chain copies: 3; label: 5' biotin; blunt
[4] = biological target: His6-S-HsfB2a (Arabidopsis thaliana Col-0, UniProt J7G5V7 1-85); test: as above; settings: protein: recombinant; tags: His6 (pET-28a); label: 5' biotin; blunt
[5] = biological target: His6-S-HsfA4c (Arabidopsis thaliana Col-0, UniProt J7FXE8 1-102); test: as above; settings: protein: recombinant; tags: His6 (pET-28a); label: 5' biotin; blunt
[6] = biological target: His6-tDBD (Arabidopsis thaliana Col-0, UniProt J7G1E7 42-103); test: as above; settings: protein: recombinant; tags: His6 (pET-28a); label: 5' biotin; blunt
[7] = biological target: His6-S-HsfB1 (Arabidopsis thaliana Col-0, UniProt J7FYU6 1-86); test: as above; settings: protein: recombinant; tags: His6 (pET-28a); label: 5' biotin; blunt
Chain of His6-S-HsfB1 (J7FYU6 entry or part of it): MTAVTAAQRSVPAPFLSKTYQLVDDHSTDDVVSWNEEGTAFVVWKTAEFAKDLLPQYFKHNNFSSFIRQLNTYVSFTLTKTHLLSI

T1 sequence (O80982 whole entry): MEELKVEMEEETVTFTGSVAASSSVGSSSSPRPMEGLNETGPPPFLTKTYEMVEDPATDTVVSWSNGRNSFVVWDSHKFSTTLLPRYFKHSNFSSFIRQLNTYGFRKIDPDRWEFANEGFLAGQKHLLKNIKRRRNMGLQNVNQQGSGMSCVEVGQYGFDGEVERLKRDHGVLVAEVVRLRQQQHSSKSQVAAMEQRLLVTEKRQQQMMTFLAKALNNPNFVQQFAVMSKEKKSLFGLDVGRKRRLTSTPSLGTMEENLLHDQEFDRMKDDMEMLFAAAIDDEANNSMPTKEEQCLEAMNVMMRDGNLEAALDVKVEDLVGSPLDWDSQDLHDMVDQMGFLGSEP
Chain of His6-S-HsfA4c (J7FXE8 entry or part of it): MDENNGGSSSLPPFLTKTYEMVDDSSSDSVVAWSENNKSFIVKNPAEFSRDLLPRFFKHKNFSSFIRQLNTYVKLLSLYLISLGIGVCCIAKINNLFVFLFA
Chain of His6-DBD (O80982 42-135): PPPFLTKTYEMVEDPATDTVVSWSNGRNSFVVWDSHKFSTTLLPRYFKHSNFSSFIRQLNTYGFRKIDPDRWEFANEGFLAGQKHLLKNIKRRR
Chain of His6-S-HsfB2a (J7G5V7 entry or part of it): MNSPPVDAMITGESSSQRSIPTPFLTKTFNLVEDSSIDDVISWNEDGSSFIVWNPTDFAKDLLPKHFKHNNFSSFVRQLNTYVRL
Chain of His6-tDBD (J7G1E7 entry or part of it): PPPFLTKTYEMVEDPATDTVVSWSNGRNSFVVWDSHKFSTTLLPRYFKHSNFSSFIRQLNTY

B1: HSE probe (dsDNA)
DNA 1: TCGACTTCTAGAAGCTTCCAGAAATTAG
DNA 2: CTAATTTCTGGAAGCTTCTAGAAGTCGA
- binding result [1]: binds
- binding result [2]: binds

B2: 3xHRE probe (dsDNA)
DNA 1: GAAGAAGGAAGAAGGAAGAAG
DNA 2: CTTCTTCCTTCTTCCTTCTTC
- binding result [3]: no binding
- binding result [4]: no binding
- binding result [5]: binds
- binding result [6]: binds
- binding result [7]: binds
